# B1: AptGP (Aptamer A) (ssDNA)
# DNA: GGTGAGTTAAGGAATCAGCGGCTCAGACGACCCGACGCAC
# modifications: end-modified for disulfide conjugation to MPTMS on silicon nanowire
# Target: Glycated hemoglobin HbA1c (Homo sapiens, UniProt P69905;P68871 P69905:2-142,P68871:2-147)
# Assay: detection range by PEG:AptGP silicon nanowire FET in 1x PBS; hemolytic blood also detected, serum control response <10%
# Details: also hemolytic whole blood samples; chain copies: 2
# Experimental: Prior to the surface modification, an SiNW-FET was washed with ethanol and cleaned with oxygen plasma (25 W, 50 sccm, 60 s). The SiNW-FET device was then incubated for 15 min in an ethanol solution (1% v/v) containing an optimal ratio of MPTMS, PTMS, and PEG-silane, of which the ethanol solution was also mixed with 16.7 mM DTT to reduce the possible disulfide linkages among the thiol groups of MPTMS. Next, this silane-based SAM-modified device was rinsed with ethanol, dried under N₂, and heated at 100° C. for 15 min. Finally, the silane-based SAM-modified device was incubated in 1×PBS containing 1 μM AptGP and 16.7 mM DTT for 1 hr, where AptGP (with the 5′-SH) was immobilized to MPTMS via a disulfide bond to form a PEG:AptGP/SiNW-FET aptasensor.
# We show a representative example of measuring HbA1c in the blood sample of Subject 1 by PEG:AptGP/SiNW-FET. Before detecting HbA1c in a lysed-blood sample, a PEG:AptGP/SiNW-FET aptasensor was calibrated by recording the transfer curves corresponding to various concentrations of HbA1c (CHbA1c=0-1.2 μM in 1×PBS), as shown in FIG. 14. […] By comparison, we also detected HbA1c in serum as a control test (with the transfer curves measured in the lower panel of FIG. 16 and the corresponding electrical responses presented in FIG. 17), where the serum was isolated from the tested blood sample by centrifugation.
# Glycated hemoglobin HbA1c, sequence (P69905 2-142, chain 1 of 2): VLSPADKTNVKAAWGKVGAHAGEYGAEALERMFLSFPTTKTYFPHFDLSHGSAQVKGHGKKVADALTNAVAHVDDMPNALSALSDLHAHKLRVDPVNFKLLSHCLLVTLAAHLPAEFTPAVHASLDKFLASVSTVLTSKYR
# Glycated hemoglobin HbA1c, sequence (P68871 2-147, chain 2 of 2): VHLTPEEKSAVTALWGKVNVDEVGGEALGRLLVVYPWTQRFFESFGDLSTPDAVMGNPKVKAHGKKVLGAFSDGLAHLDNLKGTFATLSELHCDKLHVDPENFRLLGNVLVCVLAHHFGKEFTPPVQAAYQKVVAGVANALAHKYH
binder,measurement,value
B1,binding result,binds

# From US20230028090, “Method Of Using Aptamer For Detecting Glycated Hemoglobin In Whole Blood And Nanoelectronic Aptasensor” (National Taiwan University, published 2023)
